Biological target: the molecule itself
Assay: AUC; sedimentation velocity, 20 °C, Rayleigh interference optics, c(s) analysis converted into c(M); AtDSEL at 3.0, 1.5 and 0.8 mg/mL; CaPLA1 at 1.1, 0.5 and 0.3 mg/mL

Protein | stoichiometry N
Capsicum annuum phospholipase A1 homolog (enzyme, UniProt A5YW95 1-397, looked up, CaPLA1, phospholipase A1 of hot pepper (Capsicum annuum), full length, UniProt A5YW95; A non-native Gly from the TEV site (ENLYFQG) is left at the N-terminus after cleavage; Homodimer by crystal structure and AUC; also called CaPLA1; source: E. coli BL21 (DE3), purified (Ni-NTA, TEV cleavage, Ni-NTA, SEC); not shown: His6, N-terminal, cleaved) MGSMAEKWEELSGKNNWEGLLNPLDLDLRKYIIQYGELAQATYDTFISERASKYAGASRYSMENFFTKVGLDPSKYHVTKFFYGTSSIPLPDAFMTRSLSREAWSKESNFMGYIAVATDEGKVALGRRDIVINWRGTLQVLEWVNDLQFLLVPAPKVFGDGGLLPLFHPLVHHGFHNIYTTENPRSQFNKTCVRDQVMEEVKRLVEEYKNEEVSITVTGHSLGASLATLNAVDIAFNGINKSSNGKEFPVTAFVFASPKVGDLNFHKAFSKLKHLHILRIHNLLDIVPKYPPVGYFDVGQELMIDTTKSPYVKPPGEVVSWHLLEPYLHGIAGTQGIGMTAGFKLEVNRDISLVNKQWMILKDEYCIPPLWWSEKHKGMVQQQDGSWLLQDRDDYEF | 2
Arabidopsis thaliana DAD1-like seedling establishment-related lipase (enzyme, UniProt O49523 1-419, looked up, AtDSEL, phospholipase A1 of Arabidopsis thaliana, full length, UniProt O49523; A non-native Gly from the TEV site (ENLYFQG) is left at the N-terminus after cleavage; Homodimer by crystal structure and AUC; also called AtDSEL; source: E. coli BL21 (DE3), purified (Ni-NTA, TEV cleavage, Ni-NTA, SEC); not shown: His6, N-terminal, cleaved) MKRKKKEEEEEKLIVTREFAKRWRDLSGQNHWKGMLQPLDQDLREYIIHYGEMAQAGYDTFNINTESQFAGASIYSRKDFFAKVGLEIAHPYTKYKVTKFIYATSDIHVPESFLLFPISREGWSKESNWMGYVAVTDDQGTALLGRRDIVVSWRGSVQPLEWVEDFEFGLVNAIKIFGERNDQVQIHQGWYSIYMSQDERSPFTKTNARDQVLREVGRLLEKYKDEEVSITICGHSLGAALATLSATDIVANGYNRPKSRPDKSCPVTAFVFASPRVGDSDFRKLFSGLEDIRVLRTRNLPDVIPIYPPIGYSEVGDEFPIDTRKSPYMKSPGNLATFHCLEGYLHGVAGTQGTNKADLFRLDVERAIGLVNKSVDGLKDECMVPGKWRVLKNKGMAQQDDGSWELVDHEIDDNEDLDF | 2
